# Experimental data published in IntAct's records for PubMed 36931259.
# B1: 14-3-3 protein sigma (Homo sapiens), P31947 (parent)
# chain: MERASLIQKAKLAEQAERYEDMAAFMKGAVEKGEELSCEERNLLSVAYKNVVGGQRAAWRVLSSIEQKSNEEGSEEKGPEVREYREKVETELQGVCDTVLGLLDSHLIKEAGDAESRVFYLKMKGDYYRYLAEVATGDDKKRIIDSARSAYQEAMDISKKEMPPTNPIRLGLALNFSVFHYEIANSPEEAISLAKTTFDEAMADLHTLSEDSYKDSTLIMQLLRDNLTLWTADNAGEEGGEAPQEPQS
# partner: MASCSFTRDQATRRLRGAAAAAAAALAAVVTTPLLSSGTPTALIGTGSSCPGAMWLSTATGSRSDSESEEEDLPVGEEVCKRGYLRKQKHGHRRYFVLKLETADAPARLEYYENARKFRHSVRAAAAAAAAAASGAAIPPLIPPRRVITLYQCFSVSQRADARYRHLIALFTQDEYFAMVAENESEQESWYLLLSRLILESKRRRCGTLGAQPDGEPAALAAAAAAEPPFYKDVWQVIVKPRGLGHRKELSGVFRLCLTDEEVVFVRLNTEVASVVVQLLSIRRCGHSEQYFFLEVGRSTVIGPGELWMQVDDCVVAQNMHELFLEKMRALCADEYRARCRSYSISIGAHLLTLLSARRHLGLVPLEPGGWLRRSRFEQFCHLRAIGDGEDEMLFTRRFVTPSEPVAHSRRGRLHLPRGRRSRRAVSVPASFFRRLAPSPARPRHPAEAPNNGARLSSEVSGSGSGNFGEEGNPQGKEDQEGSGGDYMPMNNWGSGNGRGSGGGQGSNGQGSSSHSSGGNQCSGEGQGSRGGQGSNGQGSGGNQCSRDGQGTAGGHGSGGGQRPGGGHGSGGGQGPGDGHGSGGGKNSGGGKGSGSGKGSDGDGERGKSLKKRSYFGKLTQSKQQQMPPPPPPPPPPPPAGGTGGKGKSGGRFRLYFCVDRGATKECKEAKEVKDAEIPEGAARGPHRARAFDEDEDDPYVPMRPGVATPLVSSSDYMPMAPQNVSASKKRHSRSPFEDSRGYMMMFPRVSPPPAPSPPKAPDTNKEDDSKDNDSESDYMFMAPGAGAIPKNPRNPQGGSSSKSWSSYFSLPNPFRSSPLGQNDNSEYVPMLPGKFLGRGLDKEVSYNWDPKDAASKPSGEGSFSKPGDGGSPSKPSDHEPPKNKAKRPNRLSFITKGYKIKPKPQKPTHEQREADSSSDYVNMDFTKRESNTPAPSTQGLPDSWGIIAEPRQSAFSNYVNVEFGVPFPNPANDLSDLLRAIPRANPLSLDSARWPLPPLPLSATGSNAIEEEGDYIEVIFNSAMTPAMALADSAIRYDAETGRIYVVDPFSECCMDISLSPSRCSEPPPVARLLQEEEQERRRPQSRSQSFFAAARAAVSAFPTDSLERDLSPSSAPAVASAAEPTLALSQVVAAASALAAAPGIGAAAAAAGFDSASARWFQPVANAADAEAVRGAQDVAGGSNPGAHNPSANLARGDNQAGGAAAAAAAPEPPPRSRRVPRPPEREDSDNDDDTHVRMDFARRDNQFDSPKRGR
# B2: 14-3-3 protein sigma (Homo sapiens), P31947 (parent)
# chain: B1 chain
# partner: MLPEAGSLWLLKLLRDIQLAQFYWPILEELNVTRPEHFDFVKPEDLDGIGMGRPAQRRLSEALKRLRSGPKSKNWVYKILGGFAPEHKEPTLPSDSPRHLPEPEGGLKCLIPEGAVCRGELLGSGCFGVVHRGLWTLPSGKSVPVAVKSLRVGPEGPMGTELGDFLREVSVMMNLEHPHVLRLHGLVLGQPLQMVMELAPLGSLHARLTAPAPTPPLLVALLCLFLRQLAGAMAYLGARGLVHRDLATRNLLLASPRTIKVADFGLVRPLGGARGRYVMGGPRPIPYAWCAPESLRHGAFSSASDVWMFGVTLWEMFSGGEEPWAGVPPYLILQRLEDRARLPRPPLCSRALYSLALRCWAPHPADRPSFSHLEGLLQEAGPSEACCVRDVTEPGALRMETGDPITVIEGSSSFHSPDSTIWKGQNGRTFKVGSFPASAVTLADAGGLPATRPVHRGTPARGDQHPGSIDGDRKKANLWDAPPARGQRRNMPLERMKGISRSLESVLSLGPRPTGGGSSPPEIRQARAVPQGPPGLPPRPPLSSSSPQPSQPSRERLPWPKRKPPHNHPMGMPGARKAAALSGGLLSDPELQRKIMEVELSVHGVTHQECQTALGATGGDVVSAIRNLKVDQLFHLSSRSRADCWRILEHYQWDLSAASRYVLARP
# B3: 14-3-3 protein sigma (Homo sapiens), P31947 (parent)
# chain: B1 chain
# partner: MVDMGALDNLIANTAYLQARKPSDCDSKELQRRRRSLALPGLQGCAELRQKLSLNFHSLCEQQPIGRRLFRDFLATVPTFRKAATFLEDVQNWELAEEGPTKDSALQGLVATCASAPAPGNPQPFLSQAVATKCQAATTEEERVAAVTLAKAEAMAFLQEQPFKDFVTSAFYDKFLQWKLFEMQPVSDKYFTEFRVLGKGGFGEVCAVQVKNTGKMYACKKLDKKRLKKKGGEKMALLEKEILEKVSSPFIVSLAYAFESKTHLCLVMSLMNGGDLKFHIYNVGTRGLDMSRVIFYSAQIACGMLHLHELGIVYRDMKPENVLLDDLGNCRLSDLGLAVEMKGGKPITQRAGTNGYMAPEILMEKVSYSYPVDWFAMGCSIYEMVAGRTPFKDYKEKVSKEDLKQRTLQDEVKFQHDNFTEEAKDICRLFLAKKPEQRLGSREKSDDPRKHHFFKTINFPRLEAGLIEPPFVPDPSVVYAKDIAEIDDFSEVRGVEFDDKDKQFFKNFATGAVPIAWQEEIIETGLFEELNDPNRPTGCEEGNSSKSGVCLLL
# B4: 14-3-3 protein sigma (Homo sapiens), P31947 (parent)
# chain: B1 chain
# partner: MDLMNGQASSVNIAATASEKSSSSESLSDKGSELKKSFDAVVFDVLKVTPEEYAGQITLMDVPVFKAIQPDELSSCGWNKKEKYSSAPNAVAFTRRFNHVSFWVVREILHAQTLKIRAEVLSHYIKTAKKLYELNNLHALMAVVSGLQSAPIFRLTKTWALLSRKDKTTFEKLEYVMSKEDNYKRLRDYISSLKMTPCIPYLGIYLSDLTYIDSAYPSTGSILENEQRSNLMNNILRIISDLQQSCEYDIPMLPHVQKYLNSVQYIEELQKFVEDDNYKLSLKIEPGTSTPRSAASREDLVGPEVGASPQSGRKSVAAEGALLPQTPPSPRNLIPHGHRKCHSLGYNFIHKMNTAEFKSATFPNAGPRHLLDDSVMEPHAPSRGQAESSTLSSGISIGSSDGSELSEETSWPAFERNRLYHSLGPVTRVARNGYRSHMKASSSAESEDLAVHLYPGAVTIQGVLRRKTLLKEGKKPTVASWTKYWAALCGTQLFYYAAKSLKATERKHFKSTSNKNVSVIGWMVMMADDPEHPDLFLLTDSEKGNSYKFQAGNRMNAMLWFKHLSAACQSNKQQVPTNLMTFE
# B5: 14-3-3 protein sigma (Homo sapiens), P31947 (parent)
# chain: B1 chain
# partner: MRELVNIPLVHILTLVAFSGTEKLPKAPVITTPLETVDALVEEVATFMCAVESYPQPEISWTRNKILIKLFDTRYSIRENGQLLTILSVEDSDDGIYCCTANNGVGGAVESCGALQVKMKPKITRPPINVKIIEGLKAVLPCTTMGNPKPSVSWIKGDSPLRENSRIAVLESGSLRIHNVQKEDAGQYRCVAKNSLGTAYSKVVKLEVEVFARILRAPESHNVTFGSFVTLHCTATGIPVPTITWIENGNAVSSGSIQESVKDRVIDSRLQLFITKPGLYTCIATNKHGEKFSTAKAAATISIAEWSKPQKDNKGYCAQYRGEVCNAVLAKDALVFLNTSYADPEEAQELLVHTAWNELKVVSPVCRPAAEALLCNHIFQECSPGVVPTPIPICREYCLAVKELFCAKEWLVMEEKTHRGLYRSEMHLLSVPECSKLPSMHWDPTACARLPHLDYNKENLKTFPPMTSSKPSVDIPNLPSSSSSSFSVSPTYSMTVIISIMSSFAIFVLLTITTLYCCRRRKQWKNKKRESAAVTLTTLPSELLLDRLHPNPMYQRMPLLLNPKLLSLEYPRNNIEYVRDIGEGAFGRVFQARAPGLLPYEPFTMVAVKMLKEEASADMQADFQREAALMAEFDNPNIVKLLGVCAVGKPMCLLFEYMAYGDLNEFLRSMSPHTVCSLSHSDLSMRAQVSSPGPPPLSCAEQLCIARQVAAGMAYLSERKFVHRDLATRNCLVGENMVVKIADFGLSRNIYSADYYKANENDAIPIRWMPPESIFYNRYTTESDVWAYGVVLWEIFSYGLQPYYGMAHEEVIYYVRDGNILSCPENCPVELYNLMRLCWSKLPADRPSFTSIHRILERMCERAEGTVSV
# Variants of: B1
# Settings: with irs4_human IRS4, O14654
row,effect of a mutation on the interaction,Variant
1,decreasing interaction strength,K49E;R56E;V178D

# Variants of: B2
# Settings: with tnk1_human TNK1, Q13470
row,effect of a mutation on the interaction,Variant
1,decreasing interaction strength,K49E;R56E;V178D

# Variants of: B3
# Settings: with grk7_human GRK7, Q8WTQ7
row,effect of a mutation on the interaction,Variant
1,decreasing interaction strength,K49E;R56E;V178D

# Variants of: B4
# Settings: with rgps2_human RALGPS2, Q86X27
row,effect of a mutation on the interaction,Variant
1,decreasing interaction strength,K49E;R56E;V178D

# Variants of: B5
# Settings: with musk_human MUSK
row,effect of a mutation on the interaction,Variant
1,decreasing interaction strength,K49E;R56E;V178D
